Measured values taken from article PMC9190010, “Giardia intestinalis thymidine kinase is a high-affinity enzyme crucial for DNA synthesis and an exploitable target for drug discovery” (The Journal of Biological Chemistry, 2022).

Legend:
[1] = target: T1, G. intestinalis thymidine kinase (TK) (Giardia duodenalis, UniProt A8BRU1); test: radiometric [[…]'-3H]thymidine phosphorylation, DE81 / Hybond-XL filter assay; format: biochemical
T1 construct: gene GL50803_008364; full length, 392 residues, 42 kDa, monomer (mass photometry); expressed in E. coli BL21(DE3)pLysS from pET-Z as His6-Z fusion, tag removed with TEV protease; two TK1-like domains (1-210 active, 211-392 degenerate)
T1 sequence (A8BRU1 1-392): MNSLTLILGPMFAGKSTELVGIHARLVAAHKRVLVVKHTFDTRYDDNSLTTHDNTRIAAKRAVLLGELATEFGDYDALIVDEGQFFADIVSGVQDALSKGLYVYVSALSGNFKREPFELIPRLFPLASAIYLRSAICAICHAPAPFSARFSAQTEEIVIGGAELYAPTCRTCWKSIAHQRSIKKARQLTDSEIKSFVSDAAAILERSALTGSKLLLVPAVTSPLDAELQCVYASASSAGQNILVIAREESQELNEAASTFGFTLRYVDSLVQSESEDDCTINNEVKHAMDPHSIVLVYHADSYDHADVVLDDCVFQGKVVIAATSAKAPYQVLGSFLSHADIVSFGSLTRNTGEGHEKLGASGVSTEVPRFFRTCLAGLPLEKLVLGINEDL

[2] = target: T1, G. intestinalis thymidine kinase (TK); test: thymidine kinase assay (phosphorylation of the nucleoside); format: biochemical; details: 2 mM ATP, 5 mM MgCl2, 0.5 mM DTT, 100 mM potassium acetate, 50 mM Tris-HCl pH 7.5, 37 °C
Text: (§1) thymidine kinase assay (phosphorylation of the nucleoside) on G. intestinalis thymidine kinase (TK)

purified protein [3] = substrate: Nc1nc2c(ncn2[C@@H]2O[C@H](COP(=O)(O)OP(=O)(O)OP(=O)(O)O)[C@@H](O)[C@H]2O)c(=O)[nH]1; test: purified protein; format: biochemical, Giardia duodenalis; details: phosphate donor varied, 1 μM thymidine, 10 mM MgCl2, pH 7.5, 37 °C
purified protein [4] = substrate: Nc1ccn([C@@H]2O[C@H](COP(=O)(O)OP(=O)(O)OP(=O)(O)O)[C@@H](O)[C@H]2O)c(=O)n1; test: purified protein; format: biochemical, Giardia duodenalis; details: phosphate donor varied, 1 μM thymidine, 10 mM MgCl2, pH 7.5, 37 °C
purified protein [5] = substrate: Nc1ncnc2c1ncn2[C@@H]1O[C@H](COP(=O)(O)OP(=O)(O)OP(=O)(O)O)[C@@H](O)[C@H]1O; test: purified protein; format: biochemical, Giardia duodenalis; details: phosphate donor varied, 1 μM thymidine, 10 mM MgCl2, pH 7.5, 37 °C
purified protein [6] = substrate: O=c1ccn([C@@H]2O[C@H](COP(=O)(O)OP(=O)(O)OP(=O)(O)O)[C@@H](O)[C@H]2O)c(=O)[nH]1; test: purified protein; format: biochemical, Giardia duodenalis; details: phosphate donor varied, 1 μM thymidine, 10 mM MgCl2, pH 7.5, 37 °C
[7] = substrate: Cc1cn([C@@H]2O[C@H](CO)[C@@H](O)[C@@H]2O)c(=O)[nH]c1=O; test: thymidine kinase assay (phosphorylation of the nucleoside); format: biochemical, Giardia duodenalis; details: 2 mM ATP, 5 mM MgCl2, 0.5 mM DTT, 100 mM potassium acetate, 50 mM Tris-HCl pH 7.5, 37 °C
Text: as §1

[8] = substrate: O=c1ccn([C@H]2C[C@H](O)[C@@H](CO)O2)c(=O)[nH]1; test: as above; format: biochemical, Giardia duodenalis; details: 2 mM ATP, 5 mM MgCl2, 0.5 mM DTT, 100 mM potassium acetate, 50 mM Tris-HCl pH 7.5, 37 °C
Text: as §1

[9] = substrate: Cc1cn([C@H]2C=C[C@@H](CO)O2)c(=O)[nH]c1=O; test: as above; format: biochemical, Giardia duodenalis; details: 2 mM ATP, 5 mM MgCl2, 0.5 mM DTT, 100 mM potassium acetate, 50 mM Tris-HCl pH 7.5, 37 °C
Text: as §1

Molecule: Cc1cn([C@H]2C[C@H](O)[C@@H](COP(=O)(O)OP(=O)(O)OP(=O)(O)O)O2)c(=O)[nH]c1=O [dTTP]
- IC50 [1]: 30 ± 3 µM

Molecule: Cc1cn([C@H]2C[C@H](N=[N+]=[N-])[C@@H](CO)O2)c(=O)[nH]c1=O [AZT]
- Km (μM) [2]: 0.044 ± 0.002 (12%) μM

B1: G. intestinalis thymidine kinase (TK) (Giardia lamblia ATCC 50803) (protein)
chain: T1 sequence (A8BRU1 1-392)
notes: full length, 392 residues, 42 kDa, monomer (mass photometry); expressed in E. coli BL21(DE3)pLysS from pET-Z as His6-Z fusion, tag removed with TEV protease; two TK1-like domains (1-210 active, 211-392 degenerate)
- Km (purified protein [3]): 1303 ± 78 µM
- Vmax (purified protein [3]): 2.41 µmol/min
- kcat (purified protein [3]): 1.69 s⁻¹
- kcat/Km (purified protein [3]): 1300 M⁻¹ s⁻¹
- Km (purified protein [4]): 2396 ± 199 µM
- Vmax (purified protein [4]): 1.7 µmol/min
- kcat (purified protein [4]): 1.19 s⁻¹
- kcat/Km (purified protein [4]): 500 M⁻¹ s⁻¹
- Km (purified protein [5]): 467 ± 29 µM
- Vmax (purified protein [5]): 0.93 µmol/min
- kcat (purified protein [5]): 0.65 s⁻¹
- kcat/Km (purified protein [5]): 1400 M⁻¹ s⁻¹
- Km (purified protein [6]): 1927 ± 269 µM
- Vmax (purified protein [6]): 1.66 µmol/min
- kcat (purified protein [6]): 1.16 s⁻¹
- kcat/Km (purified protein [6]): 600 M⁻¹ s⁻¹
- Km [7]: 425 ± 47 µM
- Vmax [7]: 0.68 µmol/min
- kcat [7]: 0.48 s⁻¹
- kcat/Km [7]: 1100 M⁻¹ s⁻¹
- Km [8]: 5.3 ± 1.3 µM
- Vmax [8]: 1.02 µmol/min
- kcat [8]: 0.67 s⁻¹
- kcat/Km [8]: 134000 M⁻¹ s⁻¹
- Km [9]: 39 ± 13 µM
- Vmax [9]: 0.25 µmol/min
- kcat [9]: 0.17 s⁻¹
- kcat/Km [9]: 4500 M⁻¹ s⁻¹
